In publication PMC3814370 (2013):

Molecular target: Pcc1–Kae1 binary complex from Pyrococcus abyssi (Pyrococcus abyssi (strain GE5 / …, UniProt Q9V1Z9,Q9UXT7))
Test: gel filtration

Chain of Pcc1–Kae1 binary complex from Pyrococcus abyssi (Pyrococcus abyssi (Q9V1Z9 whole entry, chain 1 of 2): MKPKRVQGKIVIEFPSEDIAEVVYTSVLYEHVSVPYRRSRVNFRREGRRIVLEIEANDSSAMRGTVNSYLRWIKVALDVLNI
Chain of Pcc1–Kae1 binary complex from Pyrococcus abyssi (Pyrococcus abyssi (Q9UXT7 whole entry, chain 2 of 2): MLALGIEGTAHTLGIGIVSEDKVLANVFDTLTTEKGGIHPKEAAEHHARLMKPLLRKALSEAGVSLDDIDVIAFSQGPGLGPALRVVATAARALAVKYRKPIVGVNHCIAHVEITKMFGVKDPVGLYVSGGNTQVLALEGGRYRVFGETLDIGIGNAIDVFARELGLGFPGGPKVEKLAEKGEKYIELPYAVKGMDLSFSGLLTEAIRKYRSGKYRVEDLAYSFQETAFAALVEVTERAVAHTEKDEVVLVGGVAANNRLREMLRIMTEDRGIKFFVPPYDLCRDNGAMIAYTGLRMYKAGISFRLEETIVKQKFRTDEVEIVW

- binding result: binds
B1: Bud32–Cgi121 binary complex from Pyrococcus abyssi (protein)
chain 1: MKLIKQGAEAKIYLAEFSELYFDYPIKVIVKERIKKRYRIPEIDLKLRKERTIREARILRRAKEFGVNVPYVFEVDTKNMIIVMEYIEGERLKELLEKLPMEERLKVCREVGRQIGKLHEAGIVHGDLTTSNMILREGKVYFIDFGLAEFDDTIEAQGVDLHLLKRAMESTHYKWFERGFEEVLKGYIEIRGEDKGREIREKIREIELRGRYRERSWITQ
chain 2: MTPKFKNFKHDNSGQVETYLFEVISKYTMLEIKTKFGKLCIAKVKLASESIERALNLCNDNCQIVSAKCHEEVIFATILAIKAFSSGRNTAKTIKGEILLRLAGVKQIKDAIKIIGARKGENLIIYFGVSDPCSSLKDFISSLGLREEPLKPCDEDEVKRGFERAAIIEAL
